In patent publication US20170233441A1:

What was measured:
[1] = molecular target: gp41 ectodomain subunit of BG505 SOSIP.664 (HIV-1 strain BG505); assay: crystal structure, interfaces between protomers
[2] = molecular target: gp120 subunit of BG505 SOSIP.664 (HIV-1 strain BG505); assay: crystal structure; includes 216 Å^2 from glycan-protein interactions
[3] = molecular target: BG505 SOSIP.664 trimer+sCD4 complex (HIV-1 strain BG505; human) (UniProt P01730)
[4] = molecular target: gp120 subunit of BG505 SOSIP.664 (HIV-1 strain BG505); assay: crystal structure, interfaces between protomers
[5] = molecular target: BG505 SOSIP.664 HIV-1 Env ectodomain trimer (HIV-1 strain BG505); assay: crystal structure, interfaces between protomers

Question: With “gp41 ectodomain subunit of BG505 SOSIP.664” as the substance, how does the buried surface of the gp41-gp41 trimer interface [1] read?
Answer: 1920 Å^2

Question: And the buried surface within a single protomer [2]?
Answer: 5270 Å^2

Question: With 3074 antibody as the substance, how does the t1/2 of CD4-induced exposure of the epitope [3] read?
Answer: 4.2 h

Question: For gp120 subunit of BG505 SOSIP.664, which buried surface of the gp120-gp120 trimer interface [4] is on record?
Answer: 861 Å^2

Question: And the buried surface of the gp120-gp41 interface between protomers [1]?
Answer: 360 Å^2

Question: With “BG505 SOSIP.664 HIV-1 Env ectodomain trimer” as the substance, how does the buried surface of the trimer interfaces, contributed by each protomer [5] read?
Answer: 3140 Å^2
